Test in all cases: EMSA
For orientation: A gel shift assay detects complexes by their altered migration in electrophoresis.

In data set [1] the test system is MsrR (Corynebacterium glutamicum). Conditions: no oxidant; apparent KD; 10 mM Tris-HCl pH 7.4 (Fig 4 legend says pH 8.0 for the H2O2/DTT test), 5 mM MgCl2, 50 mM KCl, 5% glycerol, 0.1% NP40, 1 ug poly(dI:dC), 40 ng DNA in 20 ul ….
The subject of data set [2] is MsrR:C62S (Corynebacterium glutamicum). Conditions: no H2O2; unit inferred, nM from context; apparent KD; 10 mM Tris-HCl pH 7.4 (Fig 4 legend says pH 8.0 for the H2O2/DTT test), 5 mM MgCl2, 50 mM KCl, 5% glycerol, 0.1% NP40, 1 ug poly(dI:dC), 40 ng DNA in 20 ul ….
Data set [3] relates to T1, MsrR:C62S C62S (Corynebacterium glutamicum), ORF:1371e9c5.
T1 sequence: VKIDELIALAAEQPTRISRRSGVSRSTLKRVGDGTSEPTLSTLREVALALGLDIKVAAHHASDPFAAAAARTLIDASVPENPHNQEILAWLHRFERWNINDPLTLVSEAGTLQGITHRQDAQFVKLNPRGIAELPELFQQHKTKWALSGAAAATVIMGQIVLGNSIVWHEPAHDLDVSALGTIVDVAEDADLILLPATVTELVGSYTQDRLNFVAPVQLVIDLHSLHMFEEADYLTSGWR
The conditions noted are these: 10 mM Tris-HCl pH 7.4 (Fig 4 legend says pH 8.0 for the H2O2/DTT test), 5 mM MgCl2, 50 mM KCl, 5% glycerol, 0.1% NP40, 1 ug poly(dI:dC), 40 ng DNA in 20 ul ….

PmsrR: the values for the Kd in data set [1] and in data set [2] were 17 nM and 23.1 nM, respectively.

On to “GTGGACACGGGGTGTCTCCTAAAGATGGGGAGCAAAAACCCTCAAACTGCTGCTAAAAATACAGGATTGGCGCCCGTGACGCTACTGAAAAGGTGGAGGGGCGCGTCGAAAAGCGTTGGCCGGTGCCTGAGCGAAAAACCGTGATGATTAGCATGGTTTGTT (double strand) [PmsrR]”, for which, in data set [3], the Kd was found to be 23.1 nM and the binding entry is recorded as “binds”.

Source of the values: PMC7532634.
